Data reported in patent US20140274782A1, “AFFINITY REAGENTS AND METHODS FOR DETECTION, PURIFICATION, AND PROTEOMIC ANALYSIS OF METHYLATED PROTEINS” (The Board of Trustees of the Leland Stanford Junior …, priority 2013, published 2014).

T1: G9a and GLP (Homo sapiens, UniProt Q96KQ7+Q9H9B1)
T1 sequence (Q96KQ7 2-1210 limits assumed): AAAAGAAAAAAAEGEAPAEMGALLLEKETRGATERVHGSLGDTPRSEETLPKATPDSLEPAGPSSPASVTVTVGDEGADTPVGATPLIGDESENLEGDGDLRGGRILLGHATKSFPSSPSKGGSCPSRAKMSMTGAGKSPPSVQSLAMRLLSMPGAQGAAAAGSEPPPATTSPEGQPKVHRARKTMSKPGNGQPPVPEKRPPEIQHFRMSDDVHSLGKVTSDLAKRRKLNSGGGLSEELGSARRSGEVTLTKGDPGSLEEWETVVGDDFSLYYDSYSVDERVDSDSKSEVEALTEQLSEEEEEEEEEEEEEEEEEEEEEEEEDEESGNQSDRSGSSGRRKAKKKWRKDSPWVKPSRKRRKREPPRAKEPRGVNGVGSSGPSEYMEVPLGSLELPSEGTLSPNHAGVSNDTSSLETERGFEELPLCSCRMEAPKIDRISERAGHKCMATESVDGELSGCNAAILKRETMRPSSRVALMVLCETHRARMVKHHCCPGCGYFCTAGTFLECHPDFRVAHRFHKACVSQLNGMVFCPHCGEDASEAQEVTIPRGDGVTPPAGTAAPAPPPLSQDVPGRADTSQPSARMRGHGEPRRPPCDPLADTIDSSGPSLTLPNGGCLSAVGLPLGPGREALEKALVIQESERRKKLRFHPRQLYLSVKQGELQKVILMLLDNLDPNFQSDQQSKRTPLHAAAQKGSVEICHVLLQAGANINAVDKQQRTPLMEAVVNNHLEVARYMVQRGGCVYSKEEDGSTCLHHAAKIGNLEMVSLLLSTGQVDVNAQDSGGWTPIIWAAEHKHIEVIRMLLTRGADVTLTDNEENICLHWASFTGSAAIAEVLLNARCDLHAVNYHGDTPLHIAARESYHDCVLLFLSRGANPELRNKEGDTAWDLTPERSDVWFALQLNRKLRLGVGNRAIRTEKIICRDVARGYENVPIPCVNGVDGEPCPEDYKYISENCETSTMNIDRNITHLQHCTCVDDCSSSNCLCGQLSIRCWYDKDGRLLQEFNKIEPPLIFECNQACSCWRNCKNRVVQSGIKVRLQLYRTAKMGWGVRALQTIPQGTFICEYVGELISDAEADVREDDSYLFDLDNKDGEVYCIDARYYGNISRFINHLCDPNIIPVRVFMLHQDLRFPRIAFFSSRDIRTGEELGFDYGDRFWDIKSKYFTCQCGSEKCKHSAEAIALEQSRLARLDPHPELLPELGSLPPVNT
T1 sequence (Q9H9B1 2-1298 limits assumed): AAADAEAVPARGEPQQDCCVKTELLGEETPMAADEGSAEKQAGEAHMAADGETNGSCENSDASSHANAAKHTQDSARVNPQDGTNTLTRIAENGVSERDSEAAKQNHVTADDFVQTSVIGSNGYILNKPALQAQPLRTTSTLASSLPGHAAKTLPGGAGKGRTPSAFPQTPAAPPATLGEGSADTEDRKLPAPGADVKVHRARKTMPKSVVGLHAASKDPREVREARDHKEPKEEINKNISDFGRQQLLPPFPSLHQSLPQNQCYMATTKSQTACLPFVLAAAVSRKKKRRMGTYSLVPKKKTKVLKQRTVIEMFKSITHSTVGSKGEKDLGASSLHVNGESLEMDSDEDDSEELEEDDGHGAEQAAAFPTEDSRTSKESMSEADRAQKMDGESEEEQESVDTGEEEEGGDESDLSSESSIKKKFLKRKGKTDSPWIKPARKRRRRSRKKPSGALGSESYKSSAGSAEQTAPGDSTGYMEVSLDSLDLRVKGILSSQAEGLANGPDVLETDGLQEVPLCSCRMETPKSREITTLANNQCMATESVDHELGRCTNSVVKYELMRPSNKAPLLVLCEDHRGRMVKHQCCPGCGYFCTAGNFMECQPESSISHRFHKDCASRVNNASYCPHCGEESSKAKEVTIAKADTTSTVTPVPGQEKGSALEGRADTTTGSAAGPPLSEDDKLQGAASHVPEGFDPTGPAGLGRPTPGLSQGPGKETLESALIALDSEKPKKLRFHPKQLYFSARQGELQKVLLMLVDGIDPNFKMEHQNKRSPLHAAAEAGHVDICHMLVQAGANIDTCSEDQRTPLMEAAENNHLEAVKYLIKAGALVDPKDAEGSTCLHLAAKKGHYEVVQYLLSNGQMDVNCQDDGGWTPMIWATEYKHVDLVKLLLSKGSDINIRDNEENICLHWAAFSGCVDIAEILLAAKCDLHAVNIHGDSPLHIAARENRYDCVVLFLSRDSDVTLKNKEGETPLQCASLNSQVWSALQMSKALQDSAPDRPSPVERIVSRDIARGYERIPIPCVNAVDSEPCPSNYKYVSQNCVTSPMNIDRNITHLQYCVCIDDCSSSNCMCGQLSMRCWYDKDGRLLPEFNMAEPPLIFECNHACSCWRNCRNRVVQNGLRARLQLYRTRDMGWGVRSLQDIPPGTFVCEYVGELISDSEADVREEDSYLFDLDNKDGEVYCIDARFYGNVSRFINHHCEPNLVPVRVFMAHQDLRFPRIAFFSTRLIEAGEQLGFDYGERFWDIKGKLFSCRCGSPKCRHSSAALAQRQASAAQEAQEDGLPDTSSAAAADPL

B1: ORC3 (protein, UniProt Q9UBD5 1-711, looked up)
Origin recognition complex …: MATSSMSKGCFVFKPNSKKRKISLPIEDYFNKGKNEPEDSKLRFETYQLIWQQMKSENERLQEELNKNLFDNLIEFLQKSHSGFQKNSRDLGGQIKLREIPTAALVLGVNVTDHDLTFGSLTEALQNNVTPYVVSLQAKDCPDMKHFLQKLISQLMDCCVDIKSKEEESVHVTQRKTHYSMDSLSSWYMTVTQKTDPKMLSKKRTTSSQWQSPPVVVILKDMESFATKVLQDFIIISSQHLHEFPLILIFGIATSPIIIHRLLPHAVSSLLCIELFQSLSCKEHLTTVLDKLLLTTQFPFKINEKVLQVLTNIFLYHDFSVQNFIKGLQLSLLEHFYSQPLSVLCCNLPEAKRRINFLSNNQCENIRRLPSFRRYVEKQASEKQVALLTNERYLKEETQLLLENLHVYHMNYFLVLRCLHKFTSSLPKYPLGRQIRELYCTCLEKNIWDSEEYASVLQLLRMLAKDELMTILEKCFKVFKSYCENHLGSTAKRIEEFLAQFQSLDETKEEEDASGSQPKGLQKTDLYHLQKSLLEMKELRRSKKQTKFEVLRENVVNFIDCLVREYLLPPETQPLHEVVYFSAAHALREHLNAAPRIALHTALNNPYYYLKNEALKSEEGCIPNIAPDICIAYKLHLECSRLINLVDWSEAFATVVTAAEKMDANSATSEEMNEIIHARFIRAVSELELLGFIKPTKQKTDHVARLTWGGC
B2: HPSE2 (protein, UniProt Q8WWQ2 42-592, looked up)
Inactive heparanase-2: GDRRPLPVDRAAGLKEKTLILLDVSTKNPVRTVNENFLSLQLDPSIIHDGWLDFLSSKRLVTLARGLSPAFLRFGGKRTDFLQFQNLRNPAKSRGGPGPDYYLKNYEDDIVRSDVALDKQKGCKIAQHPDVMLELQREKAAQMHLVLLKEQFSNTYSNLILTARSLDKLYNFADCSGLHLIFALNALRRNPNNSWNSSSALSLLKYSASKKYNISWELGNEPNNYRTMHGRAVNGSQLGKDYIQLKSLLQPIRIYSRASLYGPNIGRPRKNVIALLDGFMKVAGSTVDAVTWQHCYIDGRVVKVMDFLKTRLLDTLSDQIRKIQKVVNTYTPGKKIWLEGVVTTSAGGTNNLSDSYAAGFLWLNTLGMLANQGIDVVIRHSFFDHGYNHLVDQNFNPLPDYWLSLLYKRLIGPKVLAVHVAGLQRKPRPGRVIRDKLRIYAHCTNHHNHNYVRGSITLFIINLHRSRKKIKLAGTLRDKLVHQYLLQPYGQEGLKSKSVQLNGQPLVMVDDGTLPELKPRPLRAGRTLVIPPVTMGFYVVKNVNALACRYR
B3: RALY (protein, UniProt Q9UKM9 2-306, looked up)
RNA-binding protein Raly: SLKLQASNVTNKNDPKSINSRVFIGNLNTALVKKSDVETIFSKYGRVAGCSVHKGYAFVQYSNERHARAAVLGENGRVLAGQTLDINMAGEPKPDRPKGLKRAASAIYSGYIFDYDYYRDDFYDRLFDYRGRLSPVPVPRAVPVKRPRVTVPLVRRVKTNVPVKLFARSTAVTTSSAKIKLKSSELQAIKTELTQIKSNIDALLSRLEQIAAEQKANPDGKKKGDGGGAGGGGGGGGSGGGGSGGGGGGGSSRPPAPQENTTSEAGLPQGEARTRDDGDEEGLLTHSEEELEHSQDTDADDGALQ
B4: CPSF6 (protein, UniProt Q16630 1-551, looked up)
Cleavage and polyadenylation …: MADGVDHIDIYADVGEEFNQEAEYGGHDQIDLYDDVISPSANNGDAPEDRDYMDTLPPTVGDDVGKGAAPNVVYTYTGKRIALYIGNLTWWTTDEDLTEAVHSLGVNDILEIKFFENRANGQSKGFALVGVGSEASSKKLMDLLPKRELHGQNPVVTPCNKQFLSQFEMQSRKTTQSGQMSGEGKAGPPGGSSRAAFPQGGRGRGRFPGAVPGGDRFPGPAGPGGPPPPFPAGQTPPRPPLGPPGPPGPPGPPPPGQVLPPPLAGPPNRGDRPPPPVLFPGQPFGQPPLGPLPPGPPPPVPGYGPPPGPPPPQQGPPPPPGPFPPRPPGPLGPPLTLAPPPHLPGPPPGAPPPAPHVNPAFFPPPTNSGMPTSDSRGPPPTDPYGRPPPYDRGDYGPPGREMDTARTPLSEAEFEEIMNRNRAISSSAISRAVSDASAGDYGSAIETLVTAISLIKQSKVSADDRCKVLISSLQDCLHGIESKSYGSGSRRERSRERDHSRSREKSRRHKSRSRDRHDDYYRERSRERERHRDRDRDRDRERDREREYRHR
B5: HNRNPH1 (protein, UniProt P31943 1-449, looked up)
Heterogeneous nuclear …: MMLGTEGGEGFVVKVRGLPWSCSADEVQRFFSDCKIQNGAQGIRFIYTREGRPSGEAFVELESEDEVKLALKKDRETMGHRYVEVFKSNNVEMDWVLKHTGPNSPDTANDGFVRLRGLPFGCSKEEIVQFFSGLEIVPNGITLPVDFQGRSTGEAFVQFASQEIAEKALKKHKERIGHRYIEIFKSSRAEVRTHYDPPRKLMAMQRPGPYDRPGAGRGYNSIGRGAGFERMRRGAYGGGYGGYDDYNGYNDGYGFGSDRFGRDLNYCFSGMSDHRYGDGGSTFQSTTGHCVHMRGLPYRATENDIYNFFSPLNPVRVHIEIGPDGRVTGEADVEFATHEDAVAAMSKDKANMQHRYVELFLNSTAGASGGAYEHRYVELFLNSTAGASGGAYGSQMMGGMGLSNQSSYGGPASQQLSGGYGGGYGGQSSMSGYDQVLQENSSDFQSNIA

Assays:
3×MBT domain of L3MBTL1 = test: Triple SILAC pull-down, 3xMBT/3xMBTD355N ratio (cytoplasmic, nuclear and chromatin fractions of 293T cells); format: binding, human; conditions: SILAC ratio, pull-down 3xMBT vs 3xMBTD355N; for 3xMBT/D355N UNC Heavy: experiment with UNC0638 in heavy SILAC media; for 3xMBT/D355N UNC Light: experiment with UNC0638 in light SILAC media;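 for all read-outs here: proteins quantified with MaxQuant, requiring at least two unique peptides and quantification in both label directions, normalized to the mean of proteins from a digested loading control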
G9a and GLP = target: T1, G9a and GLP; test: Triple SILAC pull-down after UNC0638 treatment of 293T cells, DMSO/UNC0638 ratio of protein captured by 3×MBT; format: cell-based; parameters: endogenous in cells; host or cells: HEK 293T; conditions: for Relative to UNC0638 UNC Heavy / Relative to UNC0638 UNC Light: SILAC ratio DMSO/UNC0638 of protein pulled down with 3xMBT; for Relative to UNC0638 UNC Heavy: UNC0638 in heavy SILAC media; for Relative to UNC0638 UNC Light: UNC0638 in light SILAC media; for Relative to UNC0638 Average: average of UNC Light and UNC Heavy experiments;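 for all read-outs here: mass spectrometry (Q-Exactive) SILAC quantitation, DMSO/UNC0638 ratio computed after subtracting 3×MBTD355N mutant pull-down background, only proteins with at least twofold 3×MBT over mutant signal considered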
Description: For UNC0638 treatments cells were treated for 24 hours with UNC0638 at 2.5 μM or DMSO vehicle control. One experiment treated cells in light media with UNC0638, the other treated cells in heavy media. Both experiments included cells in medium media treated with DMSO for negative control pull-down with 3×MBTD355N.
UNC0638 treatment experiments used a Q-Exactive mass spectrometer (ThermoFisher Scientific). A 25 cm HPLC column with 3 μm Reliasil (Orochem) was used to separate peptides over a 4 hour gradient from 0 to 75% acetonitrile. Ions were generated using a custom nanospray source flowing at 250 nL/minute. Mass spectrometry settings were 70,000 MS1 resolution, data dependent selection of up to 20 precursor ions per cycle, dynamic exclusion of 30 seconds and isolation window of 2 m/z.
For UNC0638 experiments the treated vs. untreated ratio was determined by subtracting the value from 3×MBTD355N prior to dividing values from the light and heavy channels. Only proteins showing a two-fold signal to background ratio (3×MBT/3×MBTD355N) were evaluated as potential G9a/GLP substrates.

Row | Molecule | 3xMBT/D355N UNC Heavy (3×MBT domain of L3MBTL1) [log base 2] | 3xMBT/D355N UNC Light (3×MBT domain of L3MBTL1) [log base 2] | Relative to UNC0638 UNC Heavy (G9a and GLP) [log base 2] | Relative to UNC0638 UNC Light (G9a and GLP) [log base 2] | Relative to UNC0638 Average (G9a and GLP) [log base 2]
1 | B1 | 1.54 | 2.54 | 0.25 | 0.17 | 0.21
2 | B2 | −0.14 | 3.81 |  | 4.14 | 4.14
3 | B3 | 1.15 | 3.37 | 0.12 | 0.31 | 0.21
4 | B4 | 1.89 | 3.10 | 0.30 | 0.09 | 0.20
5 | B5 | 1.85 | 2.27 | 0.24 | 0.19 | 0.21
